This test addresses p53 (human, wild type) (human (endogenous in HCT 116, MCF7, U2OS)), P04637. The test is described as follows: co-IP; HCT 116 colon cancer cells, untreated or treated with RITA; co-immunoprecipitation of p53/MDM2 or p53/MDM4 as described previously (Issaeva et al., 2004). Particulars: remark: other sources report otherwise.

p53 (human, wild type) (human (endogenous in HCT 116, MCF7, U2OS)), P04637, sequence (P04637 whole entry): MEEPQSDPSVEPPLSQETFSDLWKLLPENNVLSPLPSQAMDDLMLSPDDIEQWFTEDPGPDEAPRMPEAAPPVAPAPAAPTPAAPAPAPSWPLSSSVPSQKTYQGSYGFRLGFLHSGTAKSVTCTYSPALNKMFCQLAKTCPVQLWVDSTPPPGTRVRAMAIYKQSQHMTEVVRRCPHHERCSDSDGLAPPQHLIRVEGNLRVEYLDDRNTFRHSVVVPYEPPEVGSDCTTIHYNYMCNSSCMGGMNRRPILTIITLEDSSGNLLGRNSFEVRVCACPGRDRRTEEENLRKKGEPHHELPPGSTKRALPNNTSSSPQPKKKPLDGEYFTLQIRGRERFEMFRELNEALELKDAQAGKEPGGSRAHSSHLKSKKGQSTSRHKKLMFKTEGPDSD

B1: MDM4 (MDMX), human, O15151 1-490 (natural protein)
chain: MTSFSTSAQCSTSDSACRISPGQINQVRPKLPLLKILHAAGAQGEMFTVKEVMHYLGQYIMVKQLYDQQEQHMVYCGGDLLGELLGRQSFSVKDPSPLYDMLRKNLVTLATATTDAAQTLALAQDHSMDIPSQDQLKQSAEESSTSRKRTTEDDIPTLPTSEHKCIHSREDEDLIENLAQDETSRLDLGFEEWDVAGLPWWFLGNLRSNYTPRSNGSTDLQTNQDVGTAIVSDTTDDLWFLNESVSEQLGVGIKVEAADTEQTSEEVGKVSDKKVIEVGKNDDLEDSKSLSDDTDVEVTSEDEWQCTECKKFNSPSKRYCFRCWALRKDWYSDCSKLTHSLSTSDITAIPEKENEGNDVPDCRRTISAPVVRPKDAYIKKENSKLFDPCNSVEFLDLAHSSESQETISSMGEQLDNLSEQRTDTENMEDCQNLLKPCSLCEKRPRDGNIIHGRTGHLVTCFHCARRLKKAGASCPICKKEIQLVIKVFIA
The molecule B1 returned a percent reduction of the amount of MDMX bound to p53 by RITA of 43%.

Source of the values: publication PMC9198586.
